Test results: IntAct's records for PubMed 11854298

B1: Estrogen receptor (Homo sapiens), P03372 (parent)
chain: MTMTLHTKASGMALLHQIQGNELEPLNRPQLKIPLERPLGEVYLDSSKPAVYNYPEGAAYEFNAAAAANAQVYGQTGLPYGPGSEAAAFGSNGLGGFPPLNSVSPSPLMLLHPPPQLSPFLQPHGQQVPYYLENEPSGYTVREAGPPAFYRPNSDNRRQGGRERLASTNDKGSMAMESAKETRYCAVCNDYASGYHYGVWSCEGCKAFFKRSIQGHNDYMCPATNQCTIDKNRRKSCQACRLRKCYEVGMMKGGIRKDRRGGRMLKHKRQRDDGEGRGEVGSAGDMRAANLWPSPLMIKRSKKNSLALSLTADQMVSALLDAEPPILYSEYDPTRPFSEASMMGLLTNLADRELVHMINWAKRVPGFVDLTLHDQVHLLECAWLEILMIGLVWRSMEHPGKLLFAPNLLLDRNQGKCVEGMVEIFDMLLATSSRFRMMNLQGEEFVCLKSIILLNSGVYTFLSSTLKSLEEKDHIHRVLDKITDTLIHLMAKAGLTLQQQHQRLAQLLLILSHIRHMSNKGMEHLYSMKCKNVVPLYDLLLEMLDAHRLHAPTSRGGASVEETDQSHLATAGSTSSHSLQKYYITGEAEGFPATV
partner: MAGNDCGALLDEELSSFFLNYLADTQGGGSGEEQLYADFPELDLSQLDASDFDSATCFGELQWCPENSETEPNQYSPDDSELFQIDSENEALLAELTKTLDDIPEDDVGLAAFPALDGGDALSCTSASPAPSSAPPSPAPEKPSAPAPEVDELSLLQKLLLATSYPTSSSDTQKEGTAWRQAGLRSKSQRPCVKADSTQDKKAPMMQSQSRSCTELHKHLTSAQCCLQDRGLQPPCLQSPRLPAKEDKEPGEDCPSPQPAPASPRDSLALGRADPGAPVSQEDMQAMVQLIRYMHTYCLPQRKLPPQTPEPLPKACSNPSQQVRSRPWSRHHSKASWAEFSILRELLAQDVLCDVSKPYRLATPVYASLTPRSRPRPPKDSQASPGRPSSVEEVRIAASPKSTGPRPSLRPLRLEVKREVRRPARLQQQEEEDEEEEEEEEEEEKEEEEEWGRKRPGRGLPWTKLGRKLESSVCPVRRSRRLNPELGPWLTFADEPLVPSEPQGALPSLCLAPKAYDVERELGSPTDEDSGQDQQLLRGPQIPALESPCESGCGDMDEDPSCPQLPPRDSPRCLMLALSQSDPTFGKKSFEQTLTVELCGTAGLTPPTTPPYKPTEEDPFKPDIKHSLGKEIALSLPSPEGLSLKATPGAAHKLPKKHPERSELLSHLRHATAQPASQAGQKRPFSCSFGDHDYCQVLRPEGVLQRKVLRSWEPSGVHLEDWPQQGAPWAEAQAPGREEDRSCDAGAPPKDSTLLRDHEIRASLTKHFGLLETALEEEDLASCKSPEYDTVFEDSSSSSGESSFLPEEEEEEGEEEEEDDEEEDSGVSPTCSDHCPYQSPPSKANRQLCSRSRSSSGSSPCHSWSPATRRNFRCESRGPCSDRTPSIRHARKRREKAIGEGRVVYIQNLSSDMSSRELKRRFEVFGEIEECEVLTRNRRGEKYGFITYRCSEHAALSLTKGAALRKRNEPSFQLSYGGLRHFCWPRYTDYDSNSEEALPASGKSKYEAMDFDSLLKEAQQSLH
B2: Peroxisome proliferator-activated receptor gamma coactivator 1-beta (Homo sapiens), Q86YN6 (parent)
chain: B1 partner

Variants of: B1
Conditions: with prgc2_human PPARGC1B

Q: Which “effect of a mutation on the interaction” value does the source give for L539A;L540A here?
A: disrupting interaction strength

Variants of: B2
Conditions: with esr1_human ESR1, P03372

Q: With L155A;L156A;L159A;L160A as the variant, how does the “effect of a mutation on the interaction” value read?
A: decreasing interaction strength

Q: With L155A;L156A;L159A;L160A;L343A;L346A;L347A as the variant, how does the “effect of a mutation on the interaction” value read?
A: disrupting interaction strength

Q: L343A;L346A;L347A was tested. Which “effect of a mutation on the interaction” value did it give?
A: decreasing interaction strength
